Laboratory results: patent US20220175944A1 (MAGENTA THERAPEUTICS, published 2022)

Legend:
Assay in all cases: cell-based or functional assay
[1] = molecular target: Baboon CD117 on baboon CD34+ bone marrow cells (baboon)
[2] = molecular target: T1, Human CD117 on Kasumi-1 cells or primary human CD34+ bone marrow cells (human, UniProt P10721 26-976)
[3] = molecular target: T1, Human CD117 on Kasumi-1 cells or …; remark: listed apart in the source

T1 sequence (P10721 26-976 limits assumed): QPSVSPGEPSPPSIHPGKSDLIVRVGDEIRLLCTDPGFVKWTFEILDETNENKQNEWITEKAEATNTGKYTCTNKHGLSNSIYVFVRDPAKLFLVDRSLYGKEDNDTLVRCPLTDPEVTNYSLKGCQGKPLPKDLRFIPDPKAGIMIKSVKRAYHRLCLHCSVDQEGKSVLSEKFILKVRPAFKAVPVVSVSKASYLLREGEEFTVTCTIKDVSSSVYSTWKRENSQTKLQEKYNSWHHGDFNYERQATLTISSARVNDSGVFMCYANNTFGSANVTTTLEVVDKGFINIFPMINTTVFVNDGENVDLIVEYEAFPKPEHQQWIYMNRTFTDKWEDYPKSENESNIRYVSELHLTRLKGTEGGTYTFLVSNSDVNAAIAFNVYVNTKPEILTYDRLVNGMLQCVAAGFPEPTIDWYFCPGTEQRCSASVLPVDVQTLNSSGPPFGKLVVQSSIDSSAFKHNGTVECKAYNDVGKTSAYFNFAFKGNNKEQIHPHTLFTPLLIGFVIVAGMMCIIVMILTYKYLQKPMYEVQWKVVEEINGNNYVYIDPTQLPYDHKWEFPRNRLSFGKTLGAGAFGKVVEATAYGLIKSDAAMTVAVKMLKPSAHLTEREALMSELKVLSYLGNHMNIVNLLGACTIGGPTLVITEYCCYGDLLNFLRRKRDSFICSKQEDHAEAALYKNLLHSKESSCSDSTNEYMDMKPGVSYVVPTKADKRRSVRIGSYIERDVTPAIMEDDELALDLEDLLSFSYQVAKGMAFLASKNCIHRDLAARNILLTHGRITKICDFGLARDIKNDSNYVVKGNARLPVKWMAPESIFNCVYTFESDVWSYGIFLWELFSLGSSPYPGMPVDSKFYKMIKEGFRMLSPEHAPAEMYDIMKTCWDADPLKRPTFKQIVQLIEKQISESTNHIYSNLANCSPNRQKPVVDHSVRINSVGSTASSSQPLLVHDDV

B1: CK6 S239C-PBD (antibody, V domains shown)
VH: QVQLVQSGAAVKKPGESLKISCKGSGYRFTSYWIGWVRQMPGKGLEWMGIIYPGDSDTRYSPSFQGQVTISAGKSISTAYLQWSSLKASDTAMYYCARHGRGYNGYEGAFDIWGQGTMVTVSS
VL: AIQLTQSPSSLSASVGDRVTITCRASQGISSALAWYQQKPGKAPKLLIYDASSLESGVPSRFSGSGSGTDFTLTISSLQPEDFATYYCQQFNSYPLTFGGGTKVEIK
modifications: PBD (DNA cross linker) conjugated to the antibody, Fc modification S239C, DAR 1.7
[1]
  IC50, killing of baboon CD34+ bone marrow cells (live cell counts by flow cytometry): 0.00066 nM
[2]
  % Efficacy, in vitro hCD34 cell killing assay: 97.3%
[3]
  % Efficacy, in vitro Kasumi cell killing assay: 60.7%

B2: CK6 S239C-PNU (antibody, V domains shown)
VH: B1 VH
VL: B1 VL
modifications: PNU (DNA topoisomerase I/II inhibitor) conjugated to the antibody, Fc modification S239C, DAR 1.4
[2]
  % Efficacy, in vitro hCD34 cell killing assay: 74.4%
[3]
  % Efficacy, in vitro Kasumi cell killing assay: 85.7%

B3: CK6-SET0207 (Fc modification D265C H435A) (antibody, V domains shown)
VH: B1 VH
VL: B1 VL
modifications: SET0207 payload ('Non-cleavable natural') conjugated to the antibody, Fc modification D265C H435A, DAR 2.0
[2]
  % Efficacy, in vitro hCD34 cell killing assay: 9.18%
[3]
  % Efficacy, in vitro Kasumi cell killing assay: 0%

B4: CK6 S239C-DM (duocarmycin) (antibody, V domains shown)
VH: B1 VH
VL: B1 VL
modifications: duocarmycin (DM) conjugated to the antibody, Fc modification S239C, DAR 1.65
[2]
  % Efficacy, in vitro hCD34 cell killing assay: 66.2%
[3]
  % Efficacy, in vitro Kasumi cell killing assay: 0%

B5: CK6 S239C-D4 (calicheamicin) (antibody, V domains shown)
VH: B1 VH
VL: B1 VL
modifications: calicheamicin (D4) conjugated to the antibody, Fc modification S239C, DAR 1.72
[1]
  IC50, killing of baboon CD34+ bone marrow cells (live cell counts by flow cytometry): 14.6 nM
[2]
  % Efficacy, in vitro hCD34 cell killing assay: 52.3%
[3]
  % Efficacy, in vitro Kasumi cell killing assay: 0%
